Consider one molecule from patent CN114044821A (INST MILITARY MEDICINE ACADEMY MILITARY SCIENCES PLA, dated 2022).

Experiment [1] has as its target SARS-CoV-2 WT S-ECD蛋白 (SARS-CoV-2, UniProt P0DTC2 14-1213).
Experiment [2] has as its target Delta株刺突蛋白(S蛋白)，在假病毒/真病毒表面 (SARS-CoV-2 Delta株 (B.1.617.2)). The experiment can be described thus: cell-based or functional assay.
The target in experiment [3] is Beta株刺突蛋白(S蛋白)，在假病毒/真病毒表面 (SARS-CoV-2 Beta株 (B.1.351)). The experiment is described as follows: cell-based or functional assay.
For experiment [4], the target named is Gamma株刺突蛋白(S蛋白)，在假病毒表面 (SARS-CoV-2 Gamma株 (P.1)). The experiment can be described thus: cell-based or functional assay.
Experiment [5] has as its target Omicron株刺突蛋白(S蛋白)，在假病毒表面 (SARS-CoV-2 Omicron株 (B.1.1.529)). The experiment can be described thus: cell-based or functional assay.
Experiment [6] concerns the target Alpha株刺突蛋白(S蛋白)，在假病毒表面 (SARS-CoV-2 Alpha株 (B.1.1.7)). The experiment can be described thus: cell-based or functional assay.

B1: 抗SARS-CoV-2全人源单克隆抗体ZWC12 (antibody, V domains shown)
VH: EVQLVESGGALVQPGGSLRLSCAASGFTFANYAMSWVRQAPGKGLEWVSSMTGSSIDSYYADSVKGRFTISRDNSRNTLYLQMNSLRAEDTAVYYCAKGELLWFGDLLHNWFDPWGRGTLVTVSS
VL: DIVMTQSPATLSVSPGERATLSCRASQSVSTNLAWYQQKPGQAPRLLIHGASTRATGLPARFSGSGSGTEFTLTISSLQSEDFAVYFCQQYDSWPGTFGPGTKVDIKR
B1: in experiment [1], the Kd (as a rule, a measure of binding affinity in units of concentration) stood at 1.75 nM. In addition, the “假病毒中和 EC50 (luciferase, HEK293T)” value in experiment [2] worked out at 0.411 µg/mL; in experiment [3], 0.162 µg/mL; in experiment [4], 0.136 µg/mL; in experiment [5], 0.093 µg/mL; in experiment [6], 0.124 µg/mL. Besides, the “真病毒中和 EC50 (Vero E6, crystal violet)” value in experiment [2] is 7.97 µg/mL; in experiment [3] it was 721 µg/mL.
